# Results taken from US20170073382.
# Target: synthetic TAL effector (RVG-LAMP-2B-NLS-TALE) (Artificial Sequence) (UniProt P14727)
# Assay: cell_activity
substance,measurement,value
gfaABC1D-NeuroD1 plasmid without TAL effector binding site,binding signal,1 fold
